Laboratory results as given in patent US20190300618A1 (Merck Sharp & Dohme, published 2019).
Positions count from the first letter of the chain named. Each block holds one molecule with its values, some of them ahead of it.

Tests used:
[1] = target: human CD27 (wild type), expressed on cells (human) (UniProt P26842); experiment: cell-based or functional assay
F28A [2] = experiment: flow cytometry, CHO-K1; sub-column 1 of 2
R87A = experiment: flow cytometry, CHO-K1; sub-column 1 of 2
V49A = experiment: flow cytometry, CHO-K1; sub-column 1 of 2
K31A = experiment: flow cytometry, CHO-K1; sub-column 1 of 2
E9A = experiment: flow cytometry, CHO-K1; sub-column 1 of 2
V30A = experiment: flow cytometry, CHO-K1; sub-column 1 of 2
I46A = experiment: flow cytometry, CHO-K1; sub-column 1 of 2
P8A [3] = experiment: flow cytometry, CHO-K1; sub-column 1 of 2
G16A = experiment: flow cytometry, CHO-K1; sub-column 1 of 2
H36A = experiment: flow cytometry, CHO-K1; sub-column 1 of 2
R10A = experiment: flow cytometry, CHO-K1; sub-column 1 of 2
D43A [4] = experiment: flow cytometry, CHO-K1; sub-column 1 of 2
K17A = experiment: flow cytometry, CHO-K1; sub-column 1 of 2
P44A = experiment: flow cytometry, CHO-K1; sub-column 1 of 2
W90A [5] = experiment: flow cytometry, CHO-K1; sub-column 1 of 2
D32A = experiment: flow cytometry, CHO-K1; sub-column 1 of 2
Q41A = experiment: flow cytometry, CHO-K1; sub-column 1 of 2
Q91A = experiment: flow cytometry, CHO-K1; sub-column 1 of 2
W13A = experiment: flow cytometry, CHO-K1; sub-column 1 of 2
N88A [6] = experiment: flow cytometry, CHO-K1; sub-column 1 of 2
S63A = experiment: flow cytometry, CHO-K1; sub-column 1 of 2
Q15A = experiment: flow cytometry, CHO-K1; sub-column 1 of 2
H60A = experiment: flow cytometry, CHO-K1; sub-column 1 of 2
G89A = experiment: flow cytometry, CHO-K1; sub-column 1 of 2
R93A = experiment: flow cytometry, CHO-K1; sub-column 1 of 2
K38A = experiment: flow cytometry, CHO-K1; sub-column 1 of 2
R37A = experiment: flow cytometry, CHO-K1; sub-column 1 of 2
N88A [7] = target: T1, N88A; experiment: flow cytometry, CHO-K1; single column;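 further: CHO-K1 cells transiently transfected with hCD27 alanine mutant constructs, anti-hCD27 antibody binding measured by flow cytometry, 30 min at 4 °C, wild-type hCD27 binding taken as 100%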
T1 construct: also called hCD27 N88A
T1 receptor: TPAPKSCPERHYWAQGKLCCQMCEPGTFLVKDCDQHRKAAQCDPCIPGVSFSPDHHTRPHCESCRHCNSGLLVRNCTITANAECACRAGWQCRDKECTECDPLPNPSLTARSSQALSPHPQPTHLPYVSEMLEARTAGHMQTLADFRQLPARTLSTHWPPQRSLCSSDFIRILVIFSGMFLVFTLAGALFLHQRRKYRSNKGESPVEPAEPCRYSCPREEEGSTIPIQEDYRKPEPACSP
Description: (§1) The ability of several anti-hCD27 antibodies to bind to a series of hCD27 alanine mutants was determined using CHO-K1 cells, transiently transfected pCI-neo empty vector, pCI-neo.hCD27 and several pCI-neo.CD27Ala mutant constructs.
(§2) Detached cells were transferred to 96 wells round-bottomed well plates at approximately 1.2×10⁵ cells/well. After spinning down the cells, discarding the supernatants and re-suspending the cells in the residual volume, the primary antibodies were added and incubated for 30 minutes at 4° C. Cells were washed three times with DPBS/BSA 1%, followed by centrifugation, discarding of the supernatants and re-suspension in the residual volume. […] After washing once, antibody binding was detected using the HTS plate reader (FACS Canto II) and FlowJo software for data analysis. Debris, dead cells and doublets were excluded from the analysis. Binding was expressed as the geometric mean of the FITC signal, relative to antibody binding to hCD27, which was set at 100%.

P8A [8] = target: T2, P8A; experiment: flow cytometry, CHO-K1; single column;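 further: CHO-K1 cells transiently transfected with hCD27 alanine mutant constructs, anti-hCD27 antibody binding measured by flow cytometry, 30 min at 4 °C, wild-type hCD27 binding taken as 100%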
T2 construct: also called hCD27 P8A
T2 receptor: T1 receptor with P8A, A88N
Description: as §1, §2

D43A [9] = target: T3, D43A; experiment: flow cytometry, CHO-K1; single column;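 further: CHO-K1 cells transiently transfected with hCD27 alanine mutant constructs, anti-hCD27 antibody binding measured by flow cytometry, 30 min at 4 °C, wild-type hCD27 binding taken as 100%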
T3 construct: also called hCD27 D43A
T3 receptor: T1 receptor with D43A, A88N
Description: as §1, §2

W90A [10] = target: T4, W90A; experiment: flow cytometry, CHO-K1; single column;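 further: CHO-K1 cells transiently transfected with hCD27 alanine mutant constructs, anti-hCD27 antibody binding measured by flow cytometry, 30 min at 4 °C, wild-type hCD27 binding taken as 100%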
T4 construct: also called hCD27 W90A
T4 receptor: T1 receptor with A88N, W90A
Description: as §1, §2

F28A [11] = target: T5, F28A; experiment: flow cytometry, CHO-K1; single column
T5 construct: also called hCD27 F28A
T5 receptor: T1 receptor with F28A, A88N
Description: as §1, §2

Emax (fold change), NF-κB-luciferase reporter assay [1]: 1.48 fold change
Fold Change values at 2.5 µg/ml, NF-κB-luciferase reporter assay [1]: 1.34 fold change
NF-κB luciferase activity, 10 µg/ml fold change (FIG. 7A) [1]: 2.23 fold change
NF-κB luciferase activity, 10 µg/ml fold change (FIG. 7B) [1]: 1.73 fold change
% of WT hCD27 binding (geo mean FITC) (F28A [2]): 113%
% of WT hCD27 binding (geo mean FITC) (R87A): 40.8%
% of WT hCD27 binding (geo mean FITC) (V49A): 143%
% of WT hCD27 binding (geo mean FITC) (K31A): 205%
% of WT hCD27 binding (geo mean FITC) (E9A): 95.4%
% of WT hCD27 binding (geo mean FITC) (V30A): 171%
% of WT hCD27 binding (geo mean FITC) (I46A): 128%
% of WT hCD27 binding (geo mean FITC) (P8A [3]): 82.5%
% of WT hCD27 binding (geo mean FITC) (G16A): 96%
% of WT hCD27 binding (geo mean FITC) (H36A): 116%
% of WT hCD27 binding (geo mean FITC) (R10A): 105%
% of WT hCD27 binding (geo mean FITC) (D43A [4]): 202%
% of WT hCD27 binding (geo mean FITC) (K17A): 95.1%
% of WT hCD27 binding (geo mean FITC) (P44A): 150%
% of WT hCD27 binding (geo mean FITC) (W90A [5]): 42.5%
% of WT hCD27 binding (geo mean FITC) (D32A): 115%
% of WT hCD27 binding (geo mean FITC) (Q41A): 104%
% of WT hCD27 binding (geo mean FITC) (Q91A): 156%
% of WT hCD27 binding (geo mean FITC) (W13A): 89.5%
% of WT hCD27 binding (geo mean FITC) (N88A [6]): 153%
% of WT hCD27 binding (geo mean FITC) (S63A): 144%
% of WT hCD27 binding (geo mean FITC) (Q15A): 99%
% of WT hCD27 binding (geo mean FITC) (H60A): 176%
% of WT hCD27 binding (geo mean FITC) (G89A): 103%
% of WT hCD27 binding (geo mean FITC) (R93A): 120%
% of WT hCD27 binding (geo mean FITC) (K38A): 96.5%
% of WT hCD27 binding (geo mean FITC) (R37A): 109%
Molecule: 1F5 hIgG1 (antibody)

% of WT hCD27 binding (geo mean FITC) (N88A [7]): 132%
% of WT hCD27 binding (geo mean FITC) (P8A [8]): 63%
% of WT hCD27 binding (geo mean FITC) (D43A [9]): 31%
% of WT hCD27 binding (geo mean FITC) (W90A [10]): 93.8%
% of WT hCD27 binding (geo mean FITC) (F28A [11]): 59.4%
B1: hCD27.15-6B (humanized hCD27.15, human IgG4, Clone 6B) (antibody, V domains shown)
VH: QVQLVQSGAEVKKPGASVKVSCKASGFIIKATYMHWVRQAPGQRLEWMGRIDPANGETKYDPKFQVRVTITADTSASTAYMELSSLRSEDTAVYYCARYAWYFDVWGQGTLVTVSS
VL: DIQMTQSPSSLSASVGDRVTITCRASENIYSFLAWYQQKPGKAPKLLIYHAKTLAEGVTSRFSGSGSGTDFTLTISSLQPEDSATYYCQHYYGSPLTFGQGTRLEIKR
notes: humanized version of hCD27.15 from WO2012/004367 with identical CDR regions; also called hCD27.15 (humanized 6B); hCD27.15 6B humanized antibody
